Laboratory results reported in the MegaScale stability set (Tsuboyama et al. 2023).

B1: EEHEE_rd4_0003 (parent)
chain: KKVTINGVEIKFNNPEEAVKFALELAKRLNLRIEFHGDQIKIE

Variants of: B1
Assay: folding stability dG (cDNA display proteolysis); higher = more stable
Details: PBS, room temperature

| Variant | folding stability dG |
| --- | --- |
| KKVVINGVEIKFNNPEEAVKFALELAKRLNLRIEFHGDQIKIE | 2.94 kcal/mol |
| KKVYINGVEIKFNNPEEAVKFALELAKRLNLRIEFHGDQIKIE | 3.11 kcal/mol |
| KKVSINGVEIKFNNPEEAVKFALELAKRLNLRIEFHGDQIKIE | 2.38 kcal/mol |
| KKVTINGVEIKFNGPEEAVKFALELAKRLNLRIEFHGDQIKIE | 2.22 kcal/mol |
| KKVTINGVEIKFNVPEEAVKFALELAKRLNLRIEFHGDQIKIE | 2.36 kcal/mol |
| KKVTINGVEIKINNPEEAVKFALELAKRLNLRIEFHGDQIKIE | 1.9 kcal/mol |
| KKVTINGVEIKLNNPEEAVKFALELAKRLNLRIEFHGDQIKIE | 1.92 kcal/mol |
| KKVTINGVEIKDNNPEEAVKFALELAKRLNLRIEFHGDQIKIE | 0.955 kcal/mol |
| KKVTINGVEIKCNNPEEAVKFALELAKRLNLRIEFHGDQIKIE | 3.25 kcal/mol |
| KKVTIKGVEIKFNNPEEAVKFALELAKRLNLRIEFHGDQIKIE | 2.17 kcal/mol |
| KKVTIPGVEIKFNNPEEAVKFALELAKRLNLRIEFHGDQIKIE | 1.57 kcal/mol |
| KKVTINGVEIKFNNLEEAVKFALELAKRLNLRIEFHGDQIKIE | 2.9 kcal/mol |
| KKVTINGVEIKFNNFEEAVKFALELAKRLNLRIEFHGDQIKIE | 3.12 kcal/mol |
| KKVTINGVEIKFNNTEEAVKFALELAKRLNLRIEFHGDQIKIE | 2.74 kcal/mol |
| KKVTINGVEIKFNNGEEAVKFALELAKRLNLRIEFHGDQIKIE | 2.53 kcal/mol |
| KKVTINGVEIKFNNPHEAVKFALELAKRLNLRIEFHGDQIKIE | 2.47 kcal/mol |
| KKVTINGVEIKFNNPMEAVKFALELAKRLNLRIEFHGDQIKIE | 2.66 kcal/mol |
| KKVTINGVEIKFNNPEEAVKFALELAKRLNLSIEFHGDQIKIE | 2.17 kcal/mol |
| KKVTINGVEIKFNNPEEAVKFALELAKRLNLPIEFHGDQIKIE | 1.71 kcal/mol |
| KKVTINGVEIKFNNPEEAVKFALELAKRLNLEIEFHGDQIKIE | 1.64 kcal/mol |
| KKVTINGVEIKFNNPEEAVKFALELAKRLNLLIEFHGDQIKIE | 2.19 kcal/mol |
| KKVTINGVEIKFNNPEEAVKFALELAKRLNLKIEFHGDQIKIE | 2.54 kcal/mol |
| KKVTINGVWIKFNNPEEAVKFALELAKRLNLRIEFHGDQIKIE | 2.73 kcal/mol |
| KKVTINGVHIKFNNPEEAVKFALELAKRLNLRIEFHGDQIKIE | 2.46 kcal/mol |

| Variant | folding stability dG |
| --- | --- |
| KKVTINGVEIKFNNPEEAVKFALELAKRLNLRIEFHGDQIKEE | 1.3 kcal/mol |
| KKVTINGVEIKFNNPEEAVKFALELAKRLNLRIEFHGDQIKGE | 1.26 kcal/mol |
| KKVTINGVEIKFNNPERAVKFALELAKRLNLRIEFHGDQIKIE | 2.16 kcal/mol |
| KKVTINGVEIKFNNPENAVKFALELAKRLNLRIEFHGDQIKIE | 2.24 kcal/mol |
| KKVTINGVEIKFNNPEEAVKFALELAKRLNLRHEFHGDQIKIE | 0.908 kcal/mol |
| KKVTINGVEIKFNNPEEAVKFALELAKRLNLRFEFHGDQIKIE | 1.98 kcal/mol |
| KKVTINGVEIKFNNPEEAVKFALELAKRLNLRQEFHGDQIKIE | 1.08 kcal/mol |
| KKVTINGVEISFNNPEEAVKFALELAKRLNLRIEFHGDQIKIE | 2.72 kcal/mol |
| KKVTINGVEIMFNNPEEAVKFALELAKRLNLRIEFHGDQIKIE | 2.99 kcal/mol |
| KKVTINGVEILFNNPEEAVKFALELAKRLNLRIEFHGDQIKIE | 3.02 kcal/mol |
| KKVTINGVEFKFNNPEEAVKFALELAKRLNLRIEFHGDQIKIE | 2.89 kcal/mol |
| KKVTINGVEYKFNNPEEAVKFALELAKRLNLRIEFHGDQIKIE | 2.99 kcal/mol |
| KKVTINGVEIKFNNPEEAEKFALELAKRLNLRIEFHGDQIKIE | 2.04 kcal/mol |
| KKVTINGVEIKFNNPEEAIKFALELAKRLNLRIEFHGDQIKIE | 2.9 kcal/mol |
| KKVTINGVEIKFNNPEEAVKFALELAKRLNLRIEFHGDQIKIM | 3.13 kcal/mol |
| KKVTINGVEIKFNNPEEAVKFALELAKRLNLRIEFHGDQIKID | 2.5 kcal/mol |
| KKVTINGVEIKFNNPEEAVKFALELAKRLNLRIEFHGDQIKIC | 3.85 kcal/mol |
| KKVTINGVEIKFNNPEEAVKFALELAKRLNLRIEFHGDQIKIH | 2.82 kcal/mol |
| KKVTINGVEIKFNNPEEAVKFALELCKRLNLRIEFHGDQIKIE | 2.98 kcal/mol |
| KKVTINGVEIKFNNPEEAVKFALELEKRLNLRIEFHGDQIKIE | 1.33 kcal/mol |
| KKVTINGVEIKFNNPEEAVKFALELKKRLNLRIEFHGDQIKIE | 1.66 kcal/mol |
| KKVTWNGVEIKFNNPEEAVKFALELAKRLNLRIEFHGDQIKIE | 2.83 kcal/mol |
| KKVTTNGVEIKFNNPEEAVKFALELAKRLNLRIEFHGDQIKIE | 1.59 kcal/mol |
| KKVTMNGVEIKFNNPEEAVKFALELAKRLNLRIEFHGDQIKIE | 2.07 kcal/mol |

| Variant | folding stability dG |
| --- | --- |
| KKVTINVVEIKFNNPEEAVKFALELAKRLNLRIEFHGDQIKIE | 2.45 kcal/mol |
| KKVTINQVEIKFNNPEEAVKFALELAKRLNLRIEFHGDQIKIE | 1.96 kcal/mol |
| KKVTINWVEIKFNNPEEAVKFALELAKRLNLRIEFHGDQIKIE | 2.54 kcal/mol |
| KKVTINEVEIKFNNPEEAVKFALELAKRLNLRIEFHGDQIKIE | 1.78 kcal/mol |
| KKVTINAVEIKFNNPEEAVKFALELAKRLNLRIEFHGDQIKIE | 1.95 kcal/mol |
| KKVTINCVEIKFNNPEEAVKFALELAKRLNLRIEFHGDQIKIE | 3.05 kcal/mol |
| KKVTINSVEIKFNNPEEAVKFALELAKRLNLRIEFHGDQIKIE | 1.85 kcal/mol |
| KKVTINGVEIKFNNPEEAVKFLLELAKRLNLRIEFHGDQIKIE | 2.98 kcal/mol |
| KKVTINGVEIKFNNPEEAVKFDLELAKRLNLRIEFHGDQIKIE | 0.407 kcal/mol |
| KCVTINGVEIKFNNPEEAVKFALELAKRLNLRIEFHGDQIKIE | 3.4 kcal/mol |
| KAVTINGVEIKFNNPEEAVKFALELAKRLNLRIEFHGDQIKIE | 2.46 kcal/mol |
| KDVTINGVEIKFNNPEEAVKFALELAKRLNLRIEFHGDQIKIE | 1.93 kcal/mol |
| KGVTINGVEIKFNNPEEAVKFALELAKRLNLRIEFHGDQIKIE | 2.2 kcal/mol |
| KKVTINGSEIKFNNPEEAVKFALELAKRLNLRIEFHGDQIKIE | 1.97 kcal/mol |
| KKVTINGCEIKFNNPEEAVKFALELAKRLNLRIEFHGDQIKIE | 3.55 kcal/mol |
| KKVTINGNEIKFNNPEEAVKFALELAKRLNLRIEFHGDQIKIE | 2 kcal/mol |
| KKVTINGAEIKFNNPEEAVKFALELAKRLNLRIEFHGDQIKIE | 2.03 kcal/mol |
| KKVTINGEEIKFNNPEEAVKFALELAKRLNLRIEFHGDQIKIE | 1.99 kcal/mol |
| KKVTINGVEIKFNNPEEAVTFALELAKRLNLRIEFHGDQIKIE | 2.24 kcal/mol |
| KKVTINGVEIKFNNPEEAVFFALELAKRLNLRIEFHGDQIKIE | 2.51 kcal/mol |
| KKVTINGVEIKFNNPEEAVAFALELAKRLNLRIEFHGDQIKIE | 2.64 kcal/mol |
| KKVTINGVEIKFNNPEEAVHFALELAKRLNLRIEFHGDQIKIE | 2.2 kcal/mol |
| KKVTINGVEIKFNNPEEAVKFALELAKRLNLRIEFHGDLIKIE | 2.95 kcal/mol |
| KKVTINGVEIKFNNPEEAVKFALELAKRLNLRIEFHGDAIKIE | 2.62 kcal/mol |

| Variant | folding stability dG |
| --- | --- |
| KKVTINGVEIKFNNPEEAVKFALELAKRLNLRIEFHGDDIKIE | 2.64 kcal/mol |
| KKVTINGVEIKFNNPEEAVKFALELAKRLNHRIEFHGDQIKIE | 1.4 kcal/mol |
| KKVTINGVEIKFNNPEEAVKFALELAKRLNLRIMFHGDQIKIE | 2.47 kcal/mol |
| KKVTINGVEIKFNNPEEAVKFALELAKRLNLRIHFHGDQIKIE | 2.42 kcal/mol |
| KKVTINGVEIKFNNPEEAVKFALELAKRLNLRIFFHGDQIKIE | 2.74 kcal/mol |
| KKVTINGVEIKFNNPEEAVKFALELAKRLNLRIGFHGDQIKIE | 1.96 kcal/mol |
| KKVTINGVEIKFNNPEEAVKFALELAKRLNLRIVFHGDQIKIE | 2.73 kcal/mol |
| KKVTINGVEIKFNNPEEQVKFALELAKRLNLRIEFHGDQIKIE | 1.61 kcal/mol |
| KKVTINGVEIKFCNPEEAVKFALELAKRLNLRIEFHGDQIKIE | 3.31 kcal/mol |
| KKVTINGVEIKFQNPEEAVKFALELAKRLNLRIEFHGDQIKIE | 2.54 kcal/mol |
| KKVTINGVEIKFWNPEEAVKFALELAKRLNLRIEFHGDQIKIE | 2.6 kcal/mol |
| KKVTINGVEIKFNNPEEAVKFALELAKRLNLRIEMHGDQIKIE | 2.24 kcal/mol |
| KKVTINGVEIKFNNPEEAVKFALELAKRLNLRIEVHGDQIKIE | 2.37 kcal/mol |
| KKVTINGVEIKFNNPEEAVKRALELAKRLNLRIEFHGDQIKIE | 1.76 kcal/mol |
| KKVTINGVEIKFNNPEEAVKPALELAKRLNLRIEFHGDQIKIE | 0.505 kcal/mol |
| KKVTINGVEIKFNNPEEAVKAALELAKRLNLRIEFHGDQIKIE | 1.85 kcal/mol |
| KKVTINGVEIKFNNPEEAVKFALELAKRLNLRIEFHGDQIRIE | 2.8 kcal/mol |
| KKVTINGVEIKFNNPEEAVKFALELAKRLNLRIEFHGDQISIE | 2.46 kcal/mol |
| KKVTINGVEIKFNNPEEAVKFALELAKRLNLRIEFHGDQIIIE | 3.21 kcal/mol |
| KKVTINGVEIKFNNPEEAVKFALELAKRTNLRIEFHGDQIKIE | 1.61 kcal/mol |
| DKVTINGVEIKFNNPEEAVKFALELAKRLNLRIEFHGDQIKIE | 2.23 kcal/mol |
| HKVTINGVEIKFNNPEEAVKFALELAKRLNLRIEFHGDQIKIE | 2.89 kcal/mol |
| MKVTINGVEIKFNNPEEAVKFALELAKRLNLRIEFHGDQIKIE | 3.33 kcal/mol |
| VKVTINGVEIKFNNPEEAVKFALELAKRLNLRIEFHGDQIKIE | 3.25 kcal/mol |

| Variant | folding stability dG |
| --- | --- |
| KKVTINGVEIKFNNPEEAVKFALEEAKRLNLRIEFHGDQIKIE | 1.56 kcal/mol |
| KKVTINGVEIKFNNPEEAVKFALEAAKRLNLRIEFHGDQIKIE | 1.9 kcal/mol |
| KKVTINGVEIKFNNPEEAVKFALEWAKRLNLRIEFHGDQIKIE | 2.53 kcal/mol |
| KKVTINGVEIKFNNPEEAVKFALEGAKRLNLRIEFHGDQIKIE | 0.776 kcal/mol |
| KKVTINGVEIKFNNPEEAVKFALELAKRLNLRIEFHGDQGKIE | 1.37 kcal/mol |
| KKVTINGVEIKFNNPEEAVKFALELAKRLNLRIEFTGDQIKIE | 2.7 kcal/mol |
| KKVTINGVEIKFNNPEEAVKFALELAKRLNLRIEFGGDQIKIE | 2.28 kcal/mol |
| KKVTINGVEIKFNNPEEAVKFALELAKRLNLRIEFVGDQIKIE | 2.89 kcal/mol |
| KKVTINGVEIKFNNPEEAVKFALELAKRLNLRIEFRGDQIKIE | 2.52 kcal/mol |
| KKVTINGVEIKFNNPEEAVKFALKLAKRLNLRIEFHGDQIKIE | 2.4 kcal/mol |
| KKVTINGVEIKFNNPEEAVKFALSLAKRLNLRIEFHGDQIKIE | 2.49 kcal/mol |
| KKVTINGVEIKFNNPEEAVKFALTLAKRLNLRIEFHGDQIKIE | 2.43 kcal/mol |
| KKVTINGVEIKFNNPEEAVKFALELAKRLNLRIEFHMDQIKIE | 2.52 kcal/mol |
| KKVTINGVEIKFNNPEEAVKFALELAKRLNLRIEFHPDQIKIE | 2.49 kcal/mol |
| KKVTINGVEIKFNNPEEAVKFALELAKRLNLRIEFHWDQIKIE | 2.44 kcal/mol |
| KKVTINGVEIKFNNPEEAVKFALELAKRLNLRIEFHVDQIKIE | 2.38 kcal/mol |
| KKVTINGVEIKFNNPEEAVKFAGELAKRLNLRIEFHGDQIKIE | 1.43 kcal/mol |
| KKVTINGVEIKFNNPEEAVKFAIELAKRLNLRIEFHGDQIKIE | 2.57 kcal/mol |
| KKVTINGVEIKFNNPEEAVKFAPELAKRLNLRIEFHGDQIKIE | 0.007 kcal/mol |
| KKVTINGVEIKFNNPEEAVKFALELAKWLNLRIEFHGDQIKIE | 2.68 kcal/mol |
| KKVTINGVEIKFNNPEEAVKFALELAKDLNLRIEFHGDQIKIE | 1.69 kcal/mol |
| KKVTINGVEIKFNNPEEAVKFALELAKPLNLRIEFHGDQIKIE | 1.29 kcal/mol |
